In patent US20020172962, “Methods of producing nucleic acid ligands” (GILEAD SCIENCES, INC., published 2002):

Legend:
HIV-1 Rev [1] = biological target: T1, HIV-1 Rev (HIV-1, UniProt P04618 P04618:1-116); experiment: filter; high-affinity ligand; modification interference; 200 mM KOAc, 50 mM Tris pH 7.7, 10 mM DTT, 37 C; conditions: tags: American Biotechnologies, Inc
Experimental: (§1) Chemical Modification of RNA. Chemical modification techniques for nucleic acids are described in general in Ehresmann et al. (1987) Nucleic Acids Research 15:9109-9128. Modification of RNA under native conditions was performed in 200 mM KOAc, 50 mM Tris-HCl pH 7.7, 1 mM EDTA at 37° C. Modification under denaturing conditions was done in 7 M urea, 50 mM Tris-HCl pH 7.7 at 90° C. Concentration of modifying agents and incubation times are as follows: ethylnitrosourea (ENU)-1/5 dilution v/v of ethanol saturated with ENU, native 1-3 hours, denaturing 5 minutes; dimethyl sulfate (DMS)-1/750-fold dilution v/v, native 8 minutes, denaturing 1 minute; kethoxal- 0.5 mg/ml, native 5 minutes, denaturing 2 minutes; carbodiimide (CMCT)-10 mg/ml, native 30 minutes, denaturing 3 minutes; diethyl pyrocarbonate (DEPC)-1/10 dilution v/v, native 10 minutes, denaturing 1 minute.
Modification interference of Rev binding. RNAs chemically modified under denaturing conditions were selected for Rev binding through filter partitioning. […]
The extent of modification interference was determined by densitometric scanning of autoradiographs using LKB (ENU) and Molecular Dynamics (DMS, kethoxal, CMCT, and DEPC) laser densitometers. […]

HIV-1 Rev [2] = biological target: T1, HIV-1 Rev; experiment: footprint; 200 mM KOAc, 50 mM Tris pH 7.7, 1 mM DTT, 5 mM MgCl2; 500 nM Rev; conditions: tags: American Biotechnologies, Inc
Experimental: as §1
Modification of RNA in the presence of Rev. “Footprinting” of the Rev ligand, modification of the RNA ligand in the presence of Rev protein, was performed in 200 mM KOAc, 50 mM Tris-Cl pH 7.7, 1 mM DTT, and 5 mM MgCl₂. Concentration of protein was 500 nanomolar, and approximately in 3-fold molar excess over RNA concentration. Modification with protein present was attempted with all modifying agents listed above except ethylnitrosourea (ENU).

[3] = biological target: T2, HIV-1 reverse transcriptase (HIV-RT) (HIV-1, UniProt P03366;P03366 P03366:600-1159,P03366:600-1039); experiment: footprint; chemical protection and modification interference
Source text: Selection of modified RNAs by HIV-RT. Binding reactions were as above except that rather than to vary the amount of HIV-RT added to a reaction, the volume of reaction was increased in order to lower concentration. RNAs that were modified under denaturing conditions were selected at concentrations of 20, 4 and 0.8 nanomolar HIV-RT (in volumes of 1, 5 and 25 mls of binding buffer.) The amount of RNA added to each reaction was equivalent for each experiment (approximately 1-5 picomoles). RNA was eluted from filters as described in Tuerk et al. (1990) J. Mol. Biol. 213:749; Tuerk and Gold (1990) Science 249:505-510, and assayed for modified positions. In each experiment a control was included in which unselected RNA was spotted on a filter, eluted and assayed for modified positions in parallel with the selected RNAs. Determinations of variation in chemical modification for selected versus unselected RNAs were made by visual inspection of exposed films of electrophoresed assay products with the following exceptions. The extent of modification interference by ENU was determined by densitometric scanning of films using an LKB laser densitomer. An index of modification interference (M.I.) at each position was calculated as follows:
Assay of chemical modification. […]

[4] = biological target: T2, HIV-1 reverse transcriptase (HIV-RT); experiment: filter; selected by HIV-RT from mixed 2'-OMe/2'-OH population

T1 sequence (P04618 whole entry, one chain of several): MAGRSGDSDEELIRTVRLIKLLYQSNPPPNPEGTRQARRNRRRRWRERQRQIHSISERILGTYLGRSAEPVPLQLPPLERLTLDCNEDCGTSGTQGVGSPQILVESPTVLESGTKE

GGGUGCAUUGAGAAACACGUUUGUGGACUCUGUAUCU (ssRNA) [Rev ligand 6a]
binding result (HIV-1 Rev [1]): binds

B1: extended Rev ligand 6a (ssRNA)
RNA: GGGUGCAUUGAGAAACACGUUUGUGGACUCUGUAUCUAUGAAAGAAUUUUAUAUCUCUAUUGAAAC
binding result (HIV-1 Rev [2]): binds

B2: lengthened ligand B (ssRNA)
RNA: GGUCCGAAGUGCAACGGGAAAAUGCACUAUGAAAGAAUUUUAUAUCUCUAUUGAAAC
binding result [3]: binds

B3: 2'-methoxy mixed ligand B oligonucleotide (mixed)
RNA: AAAAAUCCGAAGUGCAACGGGAAAAUGCACU
modifications: AAAAA 5' tail deoxy; UCCGA and ACGGGAAAA mixed 2'-OH/2'-OMe; AGUGCA and UGCACU 2'-OMe
binding result [4]: binds
